This is an account of results in patent US20110263026, “Construction of Protein-Responsive shRNA/RNAi Control System Using RNP Motif” (JAPAN SCIENCE AND TECHNOLOGY AGENCY, published 2011).

Data set [1] deals with T1, L7Ae (UniProt O29494 SEQ:21-139). As to the kind of experiment: EMSA; 40 nM RNA, 80-640 nM L7Ae; sequence-specific binding stated for Box C/D only. As to conditions: tags: His6 (pET-28b+, Ni-NTA); hairpin (shRNA). On the procedure:
(§1) The binding between each shRNA and the protein was confirmed as follows: after dilution with a dialysis buffer to bring the protein concentration to concentrations 25 times the final concentrations of 80 to 640 nM, 2 μL of the protein solution with each concentration, 2 μL of 1 μM shRNA-Box C/D-GFP, 6 μL of ultrapure water, and 40 μL of Opti-MEM I (trademark, Invitrogen Corp.) were mixed and left standing at room temperature for 30 minutes to bind shRNA (40 nM) to L7Ae (80 nM, 160 nM, 320 nM, or 640 nM). shRNA-GFP and shRNA-Box C/D mut-GFP were bound to L7Ae in the same way. To each solution, 13 μL of 5× dye solution (0.25% BPB, 30% glycerol) was added and mixed, and 15 μL of this mixed solution was layered on a nondenaturing 15% polyacrylamide (1/30 bisacrylamide) gel and electrophoresed at 250 V at 4° C. for 50 minutes. After the electrophoresis, the gel was stained with SYBR Green for 15 minutes, and bands were confirmed using FLA-7000 (FUJI FILM).

Data set [2] addresses T1, L7Ae. The data set can be described thus: EMSA; 40 nM RNA, 80-640 nM L7Ae, Opti-MEM, room temperature. The following applies: tags: His6 (pET-28b+, Ni-NTA); hairpin (shRNA) with Box C/D kink-turn loop. The method, then: as §1
(In general: In EMSA bound probe runs differently from free probe, usually more slowly.)

T1 sequence (O29494 whole entry): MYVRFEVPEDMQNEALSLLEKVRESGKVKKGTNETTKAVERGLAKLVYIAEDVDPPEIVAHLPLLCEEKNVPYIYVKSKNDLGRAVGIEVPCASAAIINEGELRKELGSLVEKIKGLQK

B1: shRNA-Box C/D-mut-GFP (ssRNA)
RNA: GGCAUCAAGGUGAACUUCAGCUGCCCGAAAGGGCGUCAUGCUGAAGUUCACCUUGAUGCCAG
With B1, the binding result with L7Ae [1] is given as “no binding”.

B2: shRNA-Box C/D-GFP (ssRNA)
RNA: GGCAUCAAGGUGAACUUCAGCUGACCCGAAAGGGCGUGAUGCUGAAGUUCACCUUGAUGCCAG
In the case of B2, the binding result with L7Ae [2] is “binds”.

B3: shRNA-GFP (ssRNA)
RNA: GGCAUCAAGGUGAACUUCAAGAUCCAGCAUAGGGAUCUUGAAGUUCACCUUGAUGCCAG
For B3, in the data set with L7Ae [1], the binding result is given as “no binding”.
